Consider two molecules from patent US20120322135A1.

Experiment [1] addresses rabies virus antibody (antigen), first of the two types used in the screening ELISA (AS 1) (rabies virus). The experiment in a line: ELISA, 150 µl culture supernatant. A general note: An ELISA detects its analyte on a solid surface through an enzyme-linked reagent.
Experiment [2] addresses rabies virus antibody (antigen), second of the two types used in the screening ELISA (AS 2) (rabies virus). The experiment in a line: ELISA, 150 µl culture supernatant.
Experiment [3] has as its target rabies virus antibody (antigen), first of the two types used in the screening ELISA (AS 1) (rabies virus). The experiment in a line: ELISA, 10 ml culture cell breakage liquid.
In experiment [4] the target is rabies virus antibody (antigen), second of the two types used in the screening ELISA (AS 2) (rabies virus). The experiment in a line: ELISA, 10 ml culture cell breakage liquid.

B1: LC22F6 (protein)
light: DIVMTQSPLSLPVTPGEPASISCRSSQSLLHSNGFNYLDWYLQKPGQSPQLLIYLGSTRASGVPDRFSGSGSGTDFTLRISRVEAEDVGVYFCMQAVQTPFTFGPGTRLDIKRTVAAPSVFIFPPSDEQLKSGTASVVCLLNNFYPREAKVQWKVDNALQSGNSQESVTEQDSKDSTYSLSSTLTLSKADYEKHKVYACEVTHQGLSSPVTKSFNRGEC
For the molecule B1, the AS 1 (Antigen Specificity, ELISA signal) in experiment [1] amounted to 0.275; in experiment [3], 0.5. In addition, the AS 2 (Antigen Specificity, ELISA signal) in experiment [2] came out at 0.175; in experiment [4] it was 2.77.

B2: LC23F1 (protein)
light: DIVMTQTPLSSPVTLGQPASISCRSSQSLVHSDGNTYLSWLQQRPGQPPRLLIYKISNRFSGVPDRFSGSGAGTDFTLKISRVEAEDVGIYYCMQGLQTPLTFGGGTKVDLKRTVAAPSVFIFPPSDEQLKSGTASVVCLLNNFYPREAKVQWKVDNALQSGNSQESVTEQDSKDSTYSLSSTLTLSKADYEKHKVYACEVTHQGLSSPVTKSFNRGEC
With B2, the results for the AS 1 (Antigen Specificity, ELISA signal) in experiment [1] and in experiment [3] were 0.249 and 0.821, respectively. Besides, the AS 2 (Antigen Specificity, ELISA signal) in experiment [2] worked out at 0.219; in experiment [4], 2.95.
